B1: CPEB3 Ribozyme (parent)
chain: GGGGGCCACAGCAGAAGCGUUCACGUCGCGGCCCCUGUCAGAUUCUGGUGAAUCUGCGAAUUCUGCUGU

The variants in the series derive from B1. The experiment in a line: self-cleavage, relative activity (ratio to wild type); higher = more cleavage; co-transcriptional.
With U53A U61G, the self-cleavage stood at 0.581.

A51G U61C: the self-cleavage is 0.777.

Regarding C54G U69C, the self-cleavage came to 1.04.

As for U53C C54U, the self-cleavage is 0.819.

Turning to A52U C54U, the self-cleavage was 0.976.

For the variant C57U U61A, the self-cleavage was determined as 0.406.

In the case of C57U, the self-cleavage came to 0.375.

With C57G, the self-cleavage turned out to be 0.354.

Consider C57A, for which the self-cleavage amounted to 0.346.

In the case of C54A G58A, the self-cleavage is 0.883.

In the case of U55A U67A, the self-cleavage turned out to be 0.921.

U55A U67G: the self-cleavage amounted to 0.963.

For U55A G65U, the self-cleavage was determined as 0.421.

For U55A G65C, the self-cleavage came to 0.491.

With U53G U55G, the self-cleavage was 0.386.

Consider U55C U61G, for which the self-cleavage is 0.434.

Consider G56A C66A, for which the self-cleavage amounted to 0.702.

C54U U55G: the self-cleavage turned out to be 0.806.

Turning to A52C A60G, the self-cleavage worked out at 0.839.

Take A52C A60C: the self-cleavage came out at 0.398.

As to U53G G58A, the self-cleavage amounted to 0.818.

Turning to U53C C66A, the self-cleavage came out at 0.386.

As for U53C C66U, the self-cleavage is 0.801.

For C54G A59U, the self-cleavage is 0.47.

As for G58A G68U, the self-cleavage turned out to be 0.962.

In the case of G58A G68C, the self-cleavage was 0.978.

As to C57G G68U, the self-cleavage is 0.365.

With U53A C54U, the self-cleavage stood at 0.882.

Consider U53A C54A, for which the self-cleavage worked out at 0.907.

Take A52U C66G: the self-cleavage was 0.695.

On to A51U U53A, for which the self-cleavage came to 0.918.

In the case of U53G C54A, the self-cleavage came to 0.873.

A52U C63U: the self-cleavage was determined as 0.954.

For A52G C66G, the self-cleavage amounted to 0.966.

Take A51G U55A: the self-cleavage amounted to 0.87.

Take A52G G58C: the self-cleavage came to 0.972.

Regarding U53C U62C, the self-cleavage was 0.513.

Turning to U55G G68U, the self-cleavage is 0.874.

With U53A U69C, the self-cleavage amounted to 1.06.

Turning to C57A G58C, the self-cleavage is 0.397.

U55C U67A: the self-cleavage turned out to be 0.932.

For the variant U55C U67G, the self-cleavage is 0.826.

C54G U55G: the self-cleavage amounted to 0.407.

For the variant C54G U55A, the self-cleavage was 0.745.

For the variant U55G U67G, the self-cleavage came to 0.826.

For C54G C57U, the self-cleavage is 0.392.

With C57U U64C, the self-cleavage was 0.556.

Regarding C57U U64A, the self-cleavage stood at 0.392.

For C54A U69G, the self-cleavage is 1.01.

As for C57A A59C, the self-cleavage is 0.335.

For C57G U69G, the self-cleavage came to 0.473.

Regarding C57G U69A, the self-cleavage is 0.381.

On to C57A U69C, for which the self-cleavage is 0.499.

As to A51G A60C, the self-cleavage turned out to be 0.373.

For U55A U64A, the self-cleavage came to 0.532.

Consider A52U U55G, for which the self-cleavage stood at 0.56.

Regarding A52U U55A, the self-cleavage stood at 0.7.

On to G56U G68C, for which the self-cleavage is 0.963.

G56U G68A: the self-cleavage came out at 1.05.

Take G58A U64G: the self-cleavage worked out at 0.955.

Turning to C57G U62C, the self-cleavage amounted to 0.288.

With C57G U62G, the self-cleavage is 0.448.

In the case of U55C A60G, the self-cleavage came to 0.602.

On to U55C A60U, for which the self-cleavage amounted to 0.388.

As for C54A G65C, the self-cleavage amounted to 0.514.

Take G56C C63G: the self-cleavage was 0.456.

On to G56C C63U, for which the self-cleavage was 0.709.

G56C C63A: the self-cleavage was determined as 0.47.

As for C54U A59C, the self-cleavage was determined as 0.678.

For the variant U53A C63A, the self-cleavage is 0.673.

With C57U G68C, the self-cleavage turned out to be 0.365.

Take A52U U69A: the self-cleavage stood at 1.03.

Consider C57A A60G, for which the self-cleavage amounted to 0.347.

For the variant U55C G56C, the self-cleavage was found to be 0.583.

As for U55C G56A, the self-cleavage is 0.996.

As to G58A C63A, the self-cleavage turned out to be 0.748.

For the variant A51G G58A, the self-cleavage turned out to be 0.949.

C54U A60G: the self-cleavage amounted to 0.903.

On to U55A G68C, for which the self-cleavage is 1.01.

As for U53A A60U, the self-cleavage was found to be 0.35.

With U53A A60C, the self-cleavage turned out to be 0.324.

For U53A A60G, the self-cleavage amounted to 0.777.

For the variant A51U C54A, the self-cleavage worked out at 0.633.

With C54A G68U, the self-cleavage is 0.963.

For C54A G68C, the self-cleavage came to 0.942.

Regarding A52G U67C, the self-cleavage stood at 0.944.

Turning to A52G U67G, the self-cleavage was 1.02.

Turning to A51G G56A, the self-cleavage stood at 0.91.

A51G G56C: the self-cleavage was 0.69.

Take C54G G58A: the self-cleavage worked out at 0.849.

Regarding C54G U62C, the self-cleavage is 0.483.

On to C54G U62G, for which the self-cleavage was found to be 0.609.

Take U53A U55C: the self-cleavage is 0.43.

On to U53A U55G, for which the self-cleavage came to 0.411.

As for U55G A59U, the self-cleavage was found to be 0.394.

C54A U62A: the self-cleavage worked out at 0.546.

For the variant U55C, the self-cleavage stood at 0.937.

U55G: the self-cleavage amounted to 0.881.

Take U55A: the self-cleavage stood at 0.96.

As for C57U C66U, the self-cleavage was determined as 0.42.

On to U55A A60C, for which the self-cleavage came to 0.343.

For the variant A51C U62G, the self-cleavage worked out at 0.778.

Turning to U53C G56U, the self-cleavage worked out at 0.399.

As for U53G U64A, the self-cleavage was 0.604.

For the variant A52U U62C, the self-cleavage was 0.765.

For A52U U64A, the self-cleavage worked out at 0.87.

As to U55A U61C, the self-cleavage is 0.445.

In the case of U55A G58A, the self-cleavage was found to be 0.927.

Turning to U55C U62A, the self-cleavage amounted to 0.445.

Consider U55C U62C, for which the self-cleavage came out at 0.592.

For A52G G68U, the self-cleavage is 0.988.

Turning to A51U U55G, the self-cleavage stood at 0.662.

For A51G U69C, the self-cleavage turned out to be 1.06.

G56U U61G: the self-cleavage was 0.548.

Turning to G56U U61C, the self-cleavage came out at 0.383.

Regarding U55C C57G, the self-cleavage came to 0.322.

With U55C C57U, the self-cleavage was found to be 0.295.

Consider A51U A59G, for which the self-cleavage worked out at 0.993.

In the case of U55G G56C, the self-cleavage was 0.729.

In the case of U55G G56U, the self-cleavage was 0.817.

For A51C G56C, the self-cleavage is 0.57.

Regarding G56U A60C, the self-cleavage turned out to be 0.368.

G56U C57U: the self-cleavage came out at 0.322.

Turning to G56U C57A, the self-cleavage was 0.291.

For the variant C57A G65C, the self-cleavage is 0.4.

With C57A G65U, the self-cleavage came out at 0.399.

For the variant A52G U53C, the self-cleavage was 0.892.

Turning to A52G U53G, the self-cleavage came to 0.72.

As to C54A A60C, the self-cleavage amounted to 0.272.

On to C54G C63A, for which the self-cleavage was found to be 0.543.

Regarding U53G U69A, the self-cleavage was 0.982.

For C57U U62G, the self-cleavage is 0.327.

Regarding C54G G65C, the self-cleavage came out at 0.503.

Turning to G56A U69A, the self-cleavage is 1.03.

For the variant U53A U67C, the self-cleavage was found to be 0.975.

With G56A C63A, the self-cleavage was 0.648.

Take A51C C57G: the self-cleavage stood at 0.38.

Regarding C57G A60C, the self-cleavage was found to be 0.258.

Take G58A G65C: the self-cleavage worked out at 0.619.

Regarding G58A G65U, the self-cleavage turned out to be 0.743.

As for A52G C57A, the self-cleavage was determined as 0.343.

In the case of A52C C63A, the self-cleavage stood at 0.795.

For U55A U62C, the self-cleavage was 0.67.

Regarding U55A U62A, the self-cleavage was determined as 0.489.

With A52U U61G, the self-cleavage was 0.741.

In the case of U53C G65U, the self-cleavage is 0.429.

Turning to U55G U69C, the self-cleavage amounted to 0.962.

With A51C G65U, the self-cleavage was 0.729.

As to U55A C63U, the self-cleavage was found to be 0.736.

For the variant A52U G65U, the self-cleavage was found to be 0.664.

For A52U G65C, the self-cleavage was 0.549.

Turning to C54G U61G, the self-cleavage worked out at 0.436.

As for C54G U61A, the self-cleavage worked out at 0.569.

With C57A G68C, the self-cleavage is 0.5.

For U53G G68U, the self-cleavage came out at 0.986.

Turning to U53G G68C, the self-cleavage was 0.882.

Turning to U53C C63U, the self-cleavage turned out to be 0.786.

Take G56C G58U: the self-cleavage stood at 0.917.

Take G56C G58C: the self-cleavage came to 0.907.

Take G56C G58A: the self-cleavage came to 0.76.

With A52G A59G, the self-cleavage was determined as 0.98.

Turning to A52G A59U, the self-cleavage worked out at 0.82.

In the case of A52G A59C, the self-cleavage turned out to be 0.793.

On to G56U U64A, for which the self-cleavage was determined as 0.612.

As for G56U U64G, the self-cleavage turned out to be 0.753.

Turning to G56A G58A, the self-cleavage worked out at 0.905.

Take G56A G58C: the self-cleavage came out at 0.971.
